# Assay results from patent publication US20230416365A1 (Hoffmann-La Roche, published 2023).
# T1: N(A2B2)A-avi-His (biotinylated at the avi tag)
# T1 construct: also called biotinylated N(A2B2)A-avi-His
# T1 chain: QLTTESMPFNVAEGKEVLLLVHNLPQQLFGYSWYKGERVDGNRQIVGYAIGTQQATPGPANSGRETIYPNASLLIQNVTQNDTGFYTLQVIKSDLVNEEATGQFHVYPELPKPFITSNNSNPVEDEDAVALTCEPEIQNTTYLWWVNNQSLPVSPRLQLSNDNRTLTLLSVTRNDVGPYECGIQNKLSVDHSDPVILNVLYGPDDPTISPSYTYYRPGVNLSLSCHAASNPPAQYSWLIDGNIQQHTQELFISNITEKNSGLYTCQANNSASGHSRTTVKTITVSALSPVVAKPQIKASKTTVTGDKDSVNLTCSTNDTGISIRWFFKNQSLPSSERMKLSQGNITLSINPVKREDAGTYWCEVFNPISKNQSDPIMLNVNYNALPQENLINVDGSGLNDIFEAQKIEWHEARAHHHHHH
# Target: T1, N(A2B2)A-avi-His
# Test: SPR, ProteOn, antigen on NLC chip, bispecific IgG as analyte
# Method: About 2000, 1000, 500, and 250 RU of biotinylated N(A2B2)A-avi-His were immobilized on 4 channels of a Streptavidin-coated NLC chip in vertical orientation. As a control for non-specific binding, 2000 RU of biotinylated NA(B2)A-avi-His protein was immobilized on channel 5. For the determination of the affinity (KD) of the purified bispecific constructs, injection direction was changed to horizontal orientation. […] Buffer (PBST) was injected along the sixth channel to provide an “in-line” blank for referencing. Regeneration was performed with 10 mM glycine pH 1.5 for 20 s at 50 ul/min (vertical orientation).
# Association rate constants (kon) and dissociation rate constants (koff) were calculated using a simple one-to-one Langmuir binding model in ProteOn Manager v3.1 software by simultaneously fitting the association and dissociation sensorgrams. The equilibrium dissociation constant (KD) was calculated as the ratio koff/kon.
Kd,koff,kon,Binder
2.11 nM,0.000333 s⁻¹,158000 M⁻¹ s⁻¹,"bispecific CEA (A5H1EL1D)-CD28 (SA Variant 15) 1+1 IgG of Example 10.3 (bispecific antibody, knob-into-hole, crossmab, PG-LALA) heavy 1: EVQLLESGGGLVQPGGSLRLSCAASGFTFTDYYMNWVRQAPGKGLEWLGFIGNKANAYTTEYSASVKGRFTISRDKSKNTLYLQMNSLRAEDTATYYCTRDRGLRFYFDYWGQGTTVTVSSASTKGPSVFPLAPSSKSTSGGTAALGCLVKDYFPEPVTVSWNSGALTSGVHTFPAVLQSSGLYSLSSVVTVPSSSLGTQTYICNVNHKPSNTKVDKKVEPKSCDKTHTCPPCPAPEAAGGPSVFLFPPKPKDTLMISRTPEVTCVVVDVSHEDPEVKFNWYVDGVEVHNAKTKPREEQYNSTYRVVSVLTVLHQDWLNGKEYKCKVSNKALGAPIEKTISKAKGQPREPQVCTLPPSRDELTKNQVSLSCAVKGFYPSDIAVEWESNGQPENNYKTTPPVLDSDGSFFLVSKLTVDKSRWQQGNVFSCSVMHEALHNHYTQKSLSLSP light 1: EIVLTQSPATLSLSPGERATLSCRASSSVTYIHWYQQKPGQAPRSWIYATSNLASGIPARFSGSGSGTDFTLTISSLEPEDFAVYYCQHWSSKPPTFGQGTKLEIKRTVAAPSVFIFPPSDEQLKSGTASVVCLLNNFYPREAKVQWKVDNALQSGNSQESVTEQDSKDSTYSLSSTLTLSKADYEKHKVYACEVTHQGLSSPVTKSFNRGEC heavy 2: not shown light 2: not shown"
0.2 nM,3.31e-05 s⁻¹,160000 M⁻¹ s⁻¹,"bispecific CEA (P005.102)-CD28 (SA Variant 15) 1+1 IgG (bispecific antibody, knob-into-hole, crossmab, PG-LALA) heavy 1: EIVLTQSPATLSLSPGERATLSCRASSSVTYIHWYQQKPGQAPRSWIYATSNLASGIPARFSGSGSGTDFTLTISSLEPEDFAVYYCQHWSSKSPTFGQGTKLEIKSSASTKGPSVFPLAPSSKSTSGGTAALGCLVKDYFPEPVTVSWNSGALTSGVHTFPAVLQSSGLYSLSSVVTVPSSSLGTQTYICNVNHKPSNTKVDKKVEPKSCDKTHTCPPCPAPEAAGGPSVFLFPPKPKDTLMISRTPEVTCVVVDVSHEDPEVKFNWYVDGVEVHNAKTKPREEQYNSTYRVVSVLTVLHQDWLNGKEYKCKVSNKALGAPIEKTISKAKGQPREPQVCTLPPSRDELTKNQVSLSCAVKGFYPSDIAVEWESNGQPENNYKTTPPVLDSDGSFFLVSKLTVDKSRWQQGNVFSCSVMHEALHNHYTQKSLSLSP light 1: EVQLLESGGGLVQPGGSLRLSCAASGFTFTDYYMNWVRQAPGKGLEWLGFIGNKANAYTTEYSASVKGRFTISRDKSKNTLYLQMNSLRAEDTATYYCTRDRGIRFQFDYWGQGTTVTVSSASVAAPSVFIFPPSDEQLKSGTASVVCLLNNFYPREAKVQWKVDNALQSGNSQESVTEQDSKDSTYSLSSTLTLSKADYEKHKVYACEVTHQGLSSPVTKSFNRGEC heavy 2: not shown light 2: not shown"
0.33 nM,8.87e-05 s⁻¹,269000 M⁻¹ s⁻¹,"bispecific CEA (P005.097)-CD28 (SA Variant 15) 1+1 IgG (bispecific antibody, knob-into-hole, crossmab, PG-LALA) heavy 1: EIVLTQSPATLSLSPGERATLSCRASSSVTYIHWYQQKPGQAPRSWIYATSNLASGIPARFSGSGSGTDFTLTISSLEPEDFAVYYCQHWSSQPPTFGQGTKLEIKSSASTKGPSVFPLAPSSKSTSGGTAALGCLVKDYFPEPVTVSWNSGALTSGVHTFPAVLQSSGLYSLSSVVTVPSSSLGTQTYICNVNHKPSNTKVDKKVEPKSCDKTHTCPPCPAPEAAGGPSVFLFPPKPKDTLMISRTPEVTCVVVDVSHEDPEVKFNWYVDGVEVHNAKTKPREEQYNSTYRVVSVLTVLHQDWLNGKEYKCKVSNKALGAPIEKTISKAKGQPREPQVCTLPPSRDELTKNQVSLSCAVKGFYPSDIAVEWESNGQPENNYKTTPPVLDSDGSFFLVSKLTVDKSRWQQGNVFSCSVMHEALHNHYTQKSLSLSP light 1: EVQLLESGGGLVQPGGSLRLSCAASGFTFTDYYMNWVRQAPGKGLEWLGFIGNKANAYTTEYSASVKGRFTISRDKSKNTLYLQMNSLRAEDTATYYCTRDRGLRFSFDYWGQGTTVTVSSASVAAPSVFIFPPSDEQLKSGTASVVCLLNNFYPREAKVQWKVDNALQSGNSQESVTEQDSKDSTYSLSSTLTLSKADYEKHKVYACEVTHQGLSSPVTKSFNRGEC heavy 2: not shown light 2: not shown"
0.43 nM,8.83e-05 s⁻¹,205000 M⁻¹ s⁻¹,"bispecific CEA (P001.177)-CD28 (SA Variant 15) 1+1 IgG (bispecific antibody, knob-into-hole, crossmab, PG-LALA) heavy 1: EIVLTQSPATLSLSPGERATLSCRASSSVTYIHWYQQKPGQAPRSWIYATSNLASGIPARFSGSGSGTDFTLTISSLEPEDFAVYYCQHWSSKPPTFGQGTKLEIKSSASTKGPSVFPLAPSSKSTSGGTAALGCLVKDYFPEPVTVSWNSGALTSGVHTFPAVLQSSGLYSLSSVVTVPSSSLGTQTYICNVNHKPSNTKVDKKVEPKSCDKTHTCPPCPAPEAAGGPSVFLFPPKPKDTLMISRTPEVTCVVVDVSHEDPEVKFNWYVDGVEVHNAKTKPREEQYNSTYRVVSVLTVLHQDWLNGKEYKCKVSNKALGAPIEKTISKAKGQPREPQVCTLPPSRDELTKNQVSLSCAVKGFYPSDIAVEWESNGQPENNYKTTPPVLDSDGSFFLVSKLTVDKSRWQQGNVFSCSVMHEALHNHYTQKSLSLSP light 1: EVQLLESGGGLVQPGGSLRLSCAASGFYFTDYYMNWVRQAPGKGLEWLGFISNKANAYTTEYSASVKGRFTISRDKSKNTLYLQMNSLRAEDTATYYCTRDRGLRFYFDYWGQGTTVTVSSASVAAPSVFIFPPSDEQLKSGTASVVCLLNNFYPREAKVQWKVDNALQSGNSQESVTEQDSKDSTYSLSSTLTLSKADYEKHKVYACEVTHQGLSSPVTKSFNRGEC heavy 2: not shown light 2: not shown"
0.08 nM,1.85e-05 s⁻¹,225000 M⁻¹ s⁻¹,"bispecific CEA (P005.102-combo2)-CD28 (SA Variant 15) 1+1 IgG (bispecific antibody, knob-into-hole, crossmab, PG-LALA) heavy 1: EIVLTQSPATLSLSPGERATLSCRASSSVTYIHWYQQKPGQAPRSWIYATSNLASGIPARFSGSGSGTDFTLTISSLEPEDFAVYYCQHWSSKSPTFGQGTKLEIKSSASTKGPSVFPLAPSSKSTSGGTAALGCLVKDYFPEPVTVSWNSGALTSGVHTFPAVLQSSGLYSLSSVVTVPSSSLGTQTYICNVNHKPSNTKVDKKVEPKSCDKTHTCPPCPAPEAAGGPSVFLFPPKPKDTLMISRTPEVTCVVVDVSHEDPEVKFNWYVDGVEVHNAKTKPREEQYNSTYRVVSVLTVLHQDWLNGKEYKCKVSNKALGAPIEKTISKAKGQPREPQVCTLPPSRDELTKNQVSLSCAVKGFYPSDIAVEWESNGQPENNYKTTPPVLDSDGSFFLVSKLTVDKSRWQQGNVFSCSVMHEALHNHYTQKSLSLSP light 1: EVQLLESGGGLVQPGGSLRLSCAASGFYFSDYYMNWVRQAPGKGLEWLGVISNKANAYTTEYSASVKGRFTISRDKSKNTLYLQMNSLRAEDTATYYCTRDRGIRFQFDYWGQGTTVTVSSASVAAPSVFIFPPSDEQLKSGTASVVCLLNNFYPREAKVQWKVDNALQSGNSQESVTEQDSKDSTYSLSSTLTLSKADYEKHKVYACEVTHQGLSSPVTKSFNRGEC heavy 2: not shown light 2: not shown"
0.39 nM,9.7e-05 s⁻¹,249000 M⁻¹ s⁻¹,"bispecific CEA (P002.139)-CD28 (SA Variant 15) 1+1 IgG (bispecific antibody, knob-into-hole, crossmab, PG-LALA) heavy 1: EIVLTQSPATLSLSPGERATLSCHASSSVTYIHWYQQKPGQAPRSWIYATSNLASGIPARFSGSGSGTDFTLTISSLEPEDFAVYYCQHWSSKPPTFGQGTKLEIKSSASTKGPSVFPLAPSSKSTSGGTAALGCLVKDYFPEPVTVSWNSGALTSGVHTFPAVLQSSGLYSLSSVVTVPSSSLGTQTYICNVNHKPSNTKVDKKVEPKSCDKTHTCPPCPAPEAAGGPSVFLFPPKPKDTLMISRTPEVTCVVVDVSHEDPEVKFNWYVDGVEVHNAKTKPREEQYNSTYRVVSVLTVLHQDWLNGKEYKCKVSNKALGAPIEKTISKAKGQPREPQVCTLPPSRDELTKNQVSLSCAVKGFYPSDIAVEWESNGQPENNYKTTPPVLDSDGSFFLVSKLTVDKSRWQQGNVFSCSVMHEALHNHYTQKSLSLSP light 1: EVQLLESGGGLVQPGGSLRLSCAASGFYFTDYAMNWVRQAPGKGLEWLGVISNKANAYTTEYSASVKGRFTISRDKSKNTLYLQMNSLRAEDTATYYCTRDRGLRFYFDYWGQGTTVTVSSASVAAPSVFIFPPSDEQLKSGTASVVCLLNNFYPREAKVQWKVDNALQSGNSQESVTEQDSKDSTYSLSSTLTLSKADYEKHKVYACEVTHQGLSSPVTKSFNRGEC heavy 2: not shown light 2: not shown"
0.06 nM,1.23e-05 s⁻¹,207000 M⁻¹ s⁻¹,"bispecific CEA (P005.102-combo1)-CD28 (SA Variant 15) 1+1 IgG (bispecific antibody, knob-into-hole, crossmab, PG-LALA) heavy 1: EIVLTQSPATLSLSPGERATLSCRASSSVTYIHWYQQKPGQAPRSWIYATSNLASGIPARFSGSGSGTDFTLTISSLEPEDFAVYYCQHWSSKSPTFGQGTKLEIKSSASTKGPSVFPLAPSSKSTSGGTAALGCLVKDYFPEPVTVSWNSGALTSGVHTFPAVLQSSGLYSLSSVVTVPSSSLGTQTYICNVNHKPSNTKVDKKVEPKSCDKTHTCPPCPAPEAAGGPSVFLFPPKPKDTLMISRTPEVTCVVVDVSHEDPEVKFNWYVDGVEVHNAKTKPREEQYNSTYRVVSVLTVLHQDWLNGKEYKCKVSNKALGAPIEKTISKAKGQPREPQVCTLPPSRDELTKNQVSLSCAVKGFYPSDIAVEWESNGQPENNYKTTPPVLDSDGSFFLVSKLTVDKSRWQQGNVFSCSVMHEALHNHYTQKSLSLSP light 1: EVQLLESGGGLVQPGGSLRLSCAASGFYFTDYYMNWVRQAPGKGLEWLGVISNKANAYTTEYSASVKGRFTISRDKSKNTLYLQMNSLRAEDTATYYCTRDRGIRFQFDYWGQGTTVTVSSASVAAPSVFIFPPSDEQLKSGTASVVCLLNNFYPREAKVQWKVDNALQSGNSQESVTEQDSKDSTYSLSSTLTLSKADYEKHKVYACEVTHQGLSSPVTKSFNRGEC heavy 2: not shown light 2: not shown"
0.44 nM,0.000112 s⁻¹,257000 M⁻¹ s⁻¹,"bispecific CEA (P005.103)-CD28 (SA Variant 15) 1+1 IgG (bispecific antibody, knob-into-hole, crossmab, PG-LALA) heavy 1: EIVLTQSPATLSLSPGERATLSCRASSSVTYIHWYQQKPGQAPRSWIYATSNLASGIPARFSGSGSGTDFTLTISSLEPEDFAVYYCQHWSSISPTFGQGTKLEIKSSASTKGPSVFPLAPSSKSTSGGTAALGCLVKDYFPEPVTVSWNSGALTSGVHTFPAVLQSSGLYSLSSVVTVPSSSLGTQTYICNVNHKPSNTKVDKKVEPKSCDKTHTCPPCPAPEAAGGPSVFLFPPKPKDTLMISRTPEVTCVVVDVSHEDPEVKFNWYVDGVEVHNAKTKPREEQYNSTYRVVSVLTVLHQDWLNGKEYKCKVSNKALGAPIEKTISKAKGQPREPQVCTLPPSRDELTKNQVSLSCAVKGFYPSDIAVEWESNGQPENNYKTTPPVLDSDGSFFLVSKLTVDKSRWQQGNVFSCSVMHEALHNHYTQKSLSLSP light 1: EVQLLESGGGLVQPGGSLRLSCAASGFTFTDYYMNWVRQAPGKGLEWLGFIGNKANAYTTEYSASVKGRFTISRDKSKNTLYLQMNSLRAEDTATYYCTRDRGIRFYFDYWGQGTTVTVSSASVAAPSVFIFPPSDEQLKSGTASVVCLLNNFYPREAKVQWKVDNALQSGNSQESVTEQDSKDSTYSLSSTLTLSKADYEKHKVYACEVTHQGLSSPVTKSFNRGEC heavy 2: not shown light 2: not shown"
